Experimental data reported in patent publication US20220409701A1, “PROCESS FOR PRODUCING A TABLET COMPRISING GLP-1 PEPTIDES” (Novo Nordisk A/S, priority 2019, published 2022).

Assay: Isoelectric point (pI) of the GLP-1 peptide
Assay type: physicochemical
Conditions: pH value where the peptide carries no net charge
Text: Exemplary non-volatile bases are sodium hydroxide, potassium hydroxide, buffers selected from e.g. a phosphate buffer, a TRIS buffer, an acetate buffer. The ‘pI’ as used herein refers to the isoelectric point of the GLP-1 peptide, i.e. the pH value where the peptide carried no net charge.

Substance	pI
N^6,26-{18-[N-(17-carboxyheptadecanoyl)-L-γ-glutamyl]-10-oxo-3,6,12,15-tetraoxa-9,18-diazaoctadecanoyl}-[8-(2-amino-2-propanoic acid), 34-L-arginine]human glucagon-like peptide 1(7-37) [semaglutide]	about 5.4
Nε27-[2-[2-[2-[[2-[2-[2-[[(4S)-4-carboxy-4-[10-(4-carboxyphenoxy)decanoylamino]butanoyl]amino]ethoxy]ethoxy]acetyl]amino]ethoxy]ethoxy]acetyl], Nε36-[2-[2-[2-[[2-[2-[2-[[(4S)-4-carboxy-4-[10-(4-carboxyphenoxy)decanoylamino]butanoyl]amino]ethoxy]ethoxy]acetyl]amino]ethoxy]ethoxy]a cetyl]-[Aib8,Glu22,Arg26,Lys27,Glu30,Arg34,Lys36]-GLP-1-(7-37)-peptidyl-Glu-Gly [Compound A]	about 4.6
